Experimental data as given in paper PMC4486954, “Highly homologous proteins exert opposite biological activities by using different interaction interfaces” (Scientific Reports, 2015).
cellulose membrane = C-terminus attached to a cellulose membrane (CelluSpots array) through an amide bond

T1: HLT-iASPP Ank-SH3 (human, UniProt Q8WUF5 603-828)
T1 construct: iASPP (human), four ankyrin repeats and SH3 domain, residues 603-828, Swiss-Prot Q8WUF5; Detected on the arrays by its His tag (anti His HRP antibody); source: E. coli HMS 174, purified (Nickel Sepharose, size exclusion chromatography); not shown: HLT (His tag, lipoyl domain, TEV protease cleavage site), N-terminal, kept
T1 sequence (looked up): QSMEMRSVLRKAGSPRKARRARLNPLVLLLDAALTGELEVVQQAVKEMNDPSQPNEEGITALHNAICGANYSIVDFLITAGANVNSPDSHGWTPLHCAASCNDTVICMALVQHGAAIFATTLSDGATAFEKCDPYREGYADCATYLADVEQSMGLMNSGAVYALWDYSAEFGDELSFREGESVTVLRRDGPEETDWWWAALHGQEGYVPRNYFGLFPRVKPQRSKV

B1: iASPP Pro array peptide 484-498 (spot C19) (peptide)
peptide: Ac-VARPLSPTRLQPALP-{cellulose membrane}
modifications: also: C-terminus bound to cellulose membrane via amide
notes: iASPP (human) residues 484-498; source: synthetic peptide on CelluSpots array (INTAVIS)
B2: iASPP Pro array peptide 148-162 (spot B1) (peptide)
peptide: Ac-GAGSSLGRAPSPRPG-{cellulose membrane (amide bond)}
modifications: also: C-terminus bound to cellulose membrane via amide
notes: iASPP (human) residues 148-162; source: synthetic peptide on CelluSpots array (INTAVIS)
B3: iASPP Pro array peptide 132-146 (spot A23) (peptide)
peptide: Ac-YGSLDRATSPRPRAF-{cellulose membrane (amide bond)}
modifications: also: C-terminus bound to cellulose membrane via amide
notes: iASPP (human) residues 132-146; source: synthetic peptide on CelluSpots array (INTAVIS)
B4: iASPP Pro array peptide 388-402 (spot C7) (peptide)
peptide: Ac-SRAMLPGSPLFTRAP-{cellulose membrane (amide bond)}
modifications: also: C-terminus bound to cellulose membrane via amide
notes: iASPP (human) residues 388-402; source: synthetic peptide on CelluSpots array (INTAVIS)
B5: iASPP Pro array peptide 68-82 (spot A15) (peptide)
peptide: Ac-PRYSSSSIPEPFGSR-{cellulose membrane}
modifications: also: C-terminus bound to cellulose membrane via amide
notes: iASPP (human) residues 68-82; source: synthetic peptide on CelluSpots array (INTAVIS)
B6: iASPP Pro array peptide 548-562 (spot D4) (peptide)
peptide: Ac-SRLFHRHGGPGPGGP-{cellulose membrane}
modifications: also: C-terminus bound to cellulose membrane via amide
notes: iASPP (human) residues 548-562; source: synthetic peptide on CelluSpots array (INTAVIS)
B7: iASPP Pro array peptide 396-410 (spot C8) (peptide)
peptide: Ac-PLFTRAPPPKLQPQP-{cellulose membrane (amide bond)}
modifications: also: C-terminus bound to cellulose membrane via amide
notes: iASPP (human) residues 396-410; source: synthetic peptide on CelluSpots array (INTAVIS)
B8: iASPP Pro array peptide 340-354 (spot C1) (peptide)
peptide: Ac-GTLPRSWQPVSRIPM-{cellulose membrane (amide bond)}
modifications: also: C-terminus bound to cellulose membrane via amide
notes: iASPP (human) residues 340-354; source: synthetic peptide on CelluSpots array (INTAVIS)
B9: iASPP Pro array peptide 380-394 (spot C6) (peptide)
peptide: Ac-NAFWEHGASRAMLPG-{cellulose membrane (amide bond)}
modifications: also: C-terminus bound to cellulose membrane via amide
notes: iASPP (human) residues 380-394; source: synthetic peptide on CelluSpots array (INTAVIS)
B10: iASPP Pro array peptide 348-362 (spot C2) (peptide)
peptide: Ac-PVSRIPMPPSSPQPR-{cellulose membrane (amide bond)}
modifications: also: C-terminus bound to cellulose membrane via amide
notes: iASPP (human) residues 348-362; source: synthetic peptide on CelluSpots array (INTAVIS)
B11: iASPP Pro array peptide 356-370 (spot C3) (peptide)
peptide: Ac-PSSPQPRGAPRQRPI-{cellulose membrane (amide bond)}
modifications: also: C-terminus bound to cellulose membrane via amide
notes: iASPP (human) residues 356-370; source: synthetic peptide on CelluSpots array (INTAVIS)
B12: iASPP Pro array peptide 60-74 (spot A14) (peptide)
peptide: Ac-QAGPPSRPPRYSSSS-{cellulose membrane}
modifications: also: C-terminus bound to cellulose membrane via amide
notes: iASPP (human) residues 60-74; source: synthetic peptide on CelluSpots array (INTAVIS)
B13: iASPP Pro array peptide 324-338 (spot B23) (peptide)
peptide: Ac-SDAGSYRRSLGSAGP-{cellulose membrane (amide bond)}
modifications: also: C-terminus bound to cellulose membrane via amide
notes: iASPP (human) residues 324-338; source: synthetic peptide on CelluSpots array (INTAVIS)
B14: iASPP Pro array peptide 540-554 (spot D3) (peptide)
peptide: Ac-KKQYQQIISRLFHRH-{cellulose membrane}
modifications: also: C-terminus bound to cellulose membrane via amide
notes: iASPP (human) residues 540-554; source: synthetic peptide on CelluSpots array (INTAVIS)
B15: iASPP Pro array peptide 604-618 (spot D11) (peptide)
peptide: Ac-SMEMRSVLRKAGSPR-{cellulose membrane}
modifications: also: C-terminus bound to cellulose membrane via amide
notes: iASPP (human) residues 604-618; also called iASPP 604-618; source: synthetic peptide on CelluSpots array (INTAVIS)

target: T1, HLT-iASPP Ank-SH3; assay: peptide or protein array; CelluSpots array of 79 partly overlapping 15-residue iASPP Pro peptides on cellulose; 5 uM HLT-iASPP Ank-SH3 in 20 mM phosphate pH 7.0, ionic strength 150 mM, 5 mM βME, 10% glycerol, 2.5% skimmed milk; 4 °C overnight; detected with anti His HRP antibody; conditions: both partners purified

Binding result, binds:
B1
B2
B3
B4
B5
B6
B7
B8
B9
B10
B11
B12
B13
B14
B15
